Measured values taken from patent publication US20250304996A1.

How the values were obtained:
Assay in all cases: cell-based or functional assay
[1] = molecular target: SARS-CoV-2 S:B.1.1.7+Δ19aa spike protein (encoded by pGM965, S-LV v04) (SARS-CoV-2) (UniProt P0DTC2)
[2] = molecular target: SARS-CoV-2 S:G614+Δ19aa spike protein (encoded by pGM907, S-LV v02) (SARS-CoV-2) (UniProt P0DTC2)
[3] = molecular target: SARS-CoV-2 S:B.1.1351+Δ19aa spike protein (B.1.351, encoded by pGM970, S-LV v04) (SARS-CoV-2) (UniProt P0DTC2)

Substance	R001 IC50 (ug/mL), neutralisation of S-LV transduction [1] [µg/mL]	R001 IC50 (ug/mL), neutralisation of S-LV transduction [2] [µg/mL]	MM43 IC50 (ug/mL), neutralisation of S-LV transduction [3] [µg/mL]	MM43 IC50 (ug/mL), neutralisation of S-LV transduction [2] [µg/mL]
R001 neutralising antibody (rabbit IgG, SARS-CoV-2 S neutralising antibody, Sino Biological, Catalogue No. 40592-R001)	0.32	0.06	–	–
MM43 neutralising antibody (mouse IgG1, SARS-CoV-2 S neutralising antibody, Sino Biological, Catalogue No. 40591-MM43)	–	–	0.5	0.8
